Test results published in patent publication US20210332123A1 (SUZHOU KANOVA BIOPHARMACEUTICAL, published 2021).

Molecular target: T1, human IL-17C (human, UniProt Q9P0M4 19-197)
T1 sequence (looked up): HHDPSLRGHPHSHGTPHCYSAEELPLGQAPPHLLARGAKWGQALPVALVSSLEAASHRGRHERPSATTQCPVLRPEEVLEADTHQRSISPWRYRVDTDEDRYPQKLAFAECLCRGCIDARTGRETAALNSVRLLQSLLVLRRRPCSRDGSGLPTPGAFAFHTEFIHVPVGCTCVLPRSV
Experiment: ELISA (FIG. 4)
Experimental: MaxiSorp 96-well plates (NUNC #449824, www.thermofisher.com) were coated with 2 μg/ml human IL-17A (Cell Signaling #89285F, www.cellsignal.com), human IL-17F (Cell Signaling #8906LC, www.cellsignal.com), human IL-17B (Peprotech #200-28, www.peprotech.com), human IL-17C (R&D systems #1234-IL-025/CF, www.rndsystems.com), human IL-17D ((Peprotech #200-27, www.peprotech.com), human IL-17E (R&D systems #1258-IL-025/CF, www.rndsystems.com) in 1×PBS (50 μl/well) respectively. Plates were incubated at 4° C. overnight. Coating solution was removed and plates were washed once with 200 μl/well PBST (1×PBS with 0.05% tween-20). Then 200 μl/well blocking buffer (1×PBS with 0.05% tween-20, 3% BSA) was added and incubated at room temperature for 1 hour. Blocking buffer was removed and plates were washed three times with 200 μl/well PBST (1×PBS with 0.05% tween-20). The anti-IL-25 antibodies (produced in Example 2), were diluted to 10, 3.33, 1.11, 0.37, 0.123, 0.041, 0.0137, 0.0046, 0.0015, 0.00031, 0.000102, 0.000034 μg/ml by 1×PBS and added to the plates (50 μl/well). Plates were incubated at room temperature for 2 hours. Antibodies in the wells were removed and plates were washed three times with 200 μl/well PBST (1×PBS with 0.05% tween-20) each time. Goat anti-human IgG(H&L)-HRP secondary antibody (Jackson Immuno Research #109-035-088, www.jacksonimmuno.com) was diluted 1:5000 in 1×PBS and added to each well (50 μl/well). Plates were incubated at room temperature for 1 hour. Secondary antibody was removed and plates were washed seven times with 200 μl/well PBST (1×PBS with 0.05% tween-20) each time. 50 μl/well TMB (eBioscience #85-00-4201-56, www.ebioscience.com) was added and plates were incubated at room temperature for several minutes. Then 50 μl/well 2N H₂SO₄ was added to stop the reaction. Plates were read at 450 nm.

B1: murine anti-IL-25 monoclonal antibody 18H3 (antibody, V domains shown)
VH: QVTLKESGPGILQPSQTLSLTCSFSGFSLSTSGMGLGWIRQPSGKGLEWLAHIWWDDVKHYKPALKSRLTISKDISSSQVFLTIASVDTADTATYYCARMGQLHYYGYDYAMDYWGQGTSVTVSS
VL: QIVLTQSPAIMSASPGEKVTISCSASSSVSYMYWYQQKPGSSPKPWIYRTSNLASGVPARFSGSGSGTSYSLTISSMEAEDAATYYCQLYHSYPPTWTFGGGTKLEIK
notes: also called parental antibody; parental murine mAb
  binding result: no binding
